Consider 34 variants from the RNAGym collection of RNA variant scans (doi:10.1093/nar/gkz1192).

Sequences and labels used below:
B1: CPEB3 Ribozyme (parent)
chain: UAACAGGGGGCCACAGCAGAAGCGUUCACGUCGCAGCCCCUGUCAGAUUCUGGUGAAUCUGCGAAUUCUGCUGUAUAUCUC

Variants of B1 are the subject of the series. Briefly: self-cleavage, relative activity (ratio to wild type); higher = more cleavage; in vitro, sequencing. In a few lines:
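Libraries of CPEB3 self-cleaving ribozyme mutants came from rounds of error-prone PCR and carried barcodes, which DNA sequencing matched to variants. In vitro transcription used T7 RNA polymerase at 37°C for 5 hours, with a further 15 min in DNase I before EDTA stopped the reaction; the ribozymes cleaved during both steps. The RNA was reverse transcribed with template switching and sequenced on Illumina. Relative activity is the cleaved/total read fraction of a variant divided by that of the unmutated ribozyme, averaged over three batches with at least 5 reads.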
Turning to UAACUGGGGGCCACAGCAGAAGCGUUCACGUCGCUGCCCCUGUCAGAUUCUGGUGAAUCUGCGAAUUCUGCUGUAUAUCUC [A5U A35U], the self-cleavage was found to be 0.63.
For UAACUGGGGGCCACAGCAGAAGCGUUCACGUCGCCGCCCCUGUCAGAUUCUGGUGAAUCUGCGAAUUCUGCUGUAUAUCUC [A5U A35C] the value was 1.2; for UAACUGGGGGCCACAGCAGAAGCGUUCACGUCGCGGCCCCUGUCAGAUUCUGGUGAAUCUGCGAAUUCUGCUGUAUAUCUC [A5U A35G], 1.19.
As to UAACUGGGGGCCACAGCAGAAGCGUUCACGUCGCAGCCCCUGUCAGAUUCUGGUGAAUAUGCGAAUUCUGCUGUAUAUCUC [A5U C59A], the self-cleavage was found to be 0.43.
For the variant UAACUGGGGGCCACAGCAGAAGUGUUCACGUCGCAGCCCCUGUCAGAUUCUGGUGAAUCUGCGAAUUCUGCUGUAUAUCUC [A5U C23U], the self-cleavage is 0.25.
In the case of UAACUGGGGGCCACAGCAGAAGGGUUCACGUCGCAGCCCCUGUCAGAUUCUGGUGAAUCUGCGAAUUCUGCUGUAUAUCUC [A5U C23G], the self-cleavage came out at 0.08.
With UAACUGGGGGCCACAGCAGGAGCGUUCACGUCGCAGCCCCUGUCAGAUUCUGGUGAAUCUGCGAAUUCUGCUGUAUAUCUC [A5U A20G], the self-cleavage is 0.91.
As for UAACUGGGGGCCACAGCAGCAGCGUUCACGUCGCAGCCCCUGUCAGAUUCUGGUGAAUCUGCGAAUUCUGCUGUAUAUCUC [A5U A20C], the self-cleavage is 0.49.
Consider UAACUGGGGGCCACAGCAGAAGCGUUCACGUCGCAGCCCCUGUCAGAUUCUGGUGAAUCUGCGAUUUCUGCUGUAUAUCUC [A5U A65U], for which the self-cleavage turned out to be 0.28.
Next, UAACUGGGGGCCACAGCAGAAGCGUUCACGUCGCAGCCCCUGUCAGAUUCUGGUGAAUCUGCGAGUUCUGCUGUAUAUCUC [A5U A65G]: 0.55; UAACUGGGGGCCACAGCAGAAGCGUUCACGUCGAAGCCCCUGUCAGAUUCUGGUGAAUCUGCGAAUUCUGCUGUAUAUCUC [A5U C34A]: 0.65.
For UAACUGGGGGCCACAGCAGAAGCGUUCACGUCGUAGCCCCUGUCAGAUUCUGGUGAAUCUGCGAAUUCUGCUGUAUAUCUC [A5U C34U] the value was 0.55; for UAACUGGGGGCCGCAGCAGAAGCGUUCACGUCGCAGCCCCUGUCAGAUUCUGGUGAAUCUGCGAAUUCUGCUGUAUAUCUC [A5U A13G], 1.01; for UAACUGGGGGCCUCAGCAGAAGCGUUCACGUCGCAGCCCCUGUCAGAUUCUGGUGAAUCUGCGAAUUCUGCUGUAUAUCUC [A5U A13U], 1.16.
UAACUGGGGGCCCCAGCAGAAGCGUUCACGUCGCAGCCCCUGUCAGAUUCUGGUGAAUCUGCGAAUUCUGCUGUAUAUCUC [A5U A13C]: the self-cleavage was determined as 1.15.
As for UAACUGGGGGCCACAGCAGAAGCGUUCACGUCGCAGCCCCUGUCAGGUUCUGGUGAAUCUGCGAAUUCUGCUGUAUAUCUC [A5U A47G], the self-cleavage amounted to 0.95.
Turning to UAACUGGGGGCCACAGCAGAAGCGUUCAAGUCGCAGCCCCUGUCAGAUUCUGGUGAAUCUGCGAAUUCUGCUGUAUAUCUC [A5U C29A], the self-cleavage was determined as 0.36.
For UAACUGGGGGCCACAGCAGAAGCGUUCAUGUCGCAGCCCCUGUCAGAUUCUGGUGAAUCUGCGAAUUCUGCUGUAUAUCUC [A5U C29U] the value was 0.54; for UAACUGGGGGCUACAGCAGAAGCGUUCACGUCGCAGCCCCUGUCAGAUUCUGGUGAAUCUGCGAAUUCUGCUGUAUAUCUC [A5U C12U], 1.14; for UAACGGGGGGCCACAGCAGAAGCGUUCACGUCGCAGCCCCUGUCAGAUUCUGGUGAAUCUGCGAAUUCUGCUGUAUAUCCC [A5G U80C], 0.66.
Consider UAACGGGGGGCCACAGCAGAAGCGUUCACGUCGCAGCCCCUGUCAGAUUCUGGUGAAUCUGCGAAUUCUGCUGUAUAUCAC [A5G U80A], for which the self-cleavage stood at 0.79.
Turning to UAACUGGGGGCCACAGCAGAAGCGUUCACGUCGCAGCCCCUGUCAGAUUCUGGUGCAUCUGCGAAUUCUGCUGUAUAUCUC [A5U A56C], the self-cleavage was found to be 0.91.
For UAACUGGGGGCCACAGCAGAAGCGUUCACGUCGCAGCCCCUGUCAGAUUCUGGUGUAUCUGCGAAUUCUGCUGUAUAUCUC [A5U A56U] the value was 0.9; for UAACUGGGGGCCACAGCAGAAGCGUUCACGUCGCAGCCCCUGUCAGAUUCUGGUGGAUCUGCGAAUUCUGCUGUAUAUCUC [A5U A56G], 0.81; for UAACUGGGGGCCACGGCAGAAGCGUUCACGUCGCAGCCCCUGUCAGAUUCUGGUGAAUCUGCGAAUUCUGCUGUAUAUCUC [A5U A15G], 0.93.
UAACUGGGGGCCACCGCAGAAGCGUUCACGUCGCAGCCCCUGUCAGAUUCUGGUGAAUCUGCGAAUUCUGCUGUAUAUCUC [A5U A15C]: the self-cleavage was found to be 1.18.
On to UAACUGGGGGCCACUGCAGAAGCGUUCACGUCGCAGCCCCUGUCAGAUUCUGGUGAAUCUGCGAAUUCUGCUGUAUAUCUC [A5U A15U], for which the self-cleavage was 1.1.
On to UAACGGGGGGCCACAGCAGAAGCGUUCACGUCGCAGCCCCUGUCAGAUUCUGGUGAAUCUGCGAAUUCUGCUGUAUAGCUC [A5G U78G], for which the self-cleavage was 0.91.
In the case of UAACGGGGGGCCACAGCAGAAGCGUUCACGUCGCAGCCCCUGUCAGAUUCUGGUGAAUCUGCGAAUUCUGCUGUAUAACUC [A5G U78A], the self-cleavage was found to be 0.88.
On to UAACGGGGGGCCACAGCAGAAGCGUUCACGUCGCAGCCCCUGUCAGAUUCUGGUGAAUCUGCGAAUUCUGCUGUAUACCUC [A5G U78C], for which the self-cleavage is 0.63.
Take UAACUGGGGGCCACAGCAGAGGCGUUCACGUCGCAGCCCCUGUCAGAUUCUGGUGAAUCUGCGAAUUCUGCUGUAUAUCUC [A5U A21G]: the self-cleavage was determined as 0.77.
Turning to UAACUGGGGGCCACAGCAGAUGCGUUCACGUCGCAGCCCCUGUCAGAUUCUGGUGAAUCUGCGAAUUCUGCUGUAUAUCUC [A5U A21U], the self-cleavage was 0.53.
Consider UAACUGGGGGCCACAGCAGACGCGUUCACGUCGCAGCCCCUGUCAGAUUCUGGUGAAUCUGCGAAUUCUGCUGUAUAUCUC [A5U A21C], for which the self-cleavage is 0.29.
For the variant UAACUGGGGGCCACAGCAGAAGCGUUCACGUCGCAGUCCCUGUCAGAUUCUGGUGAAUCUGCGAAUUCUGCUGUAUAUCUC [A5U C37U], the self-cleavage turned out to be 0.82.
